Measurements reported in patent publication US8557986B2, “Method of producing polysaccharide derivatives” (Seikagaku Corporation, priority 2006, dated 2013).

Experiment: not given
Details: not given
Experimental: The aminoethanol-diclofenac-introduced sodium hyaluronate prepared in Reference Examples 1 and 2 were tested by the same procedure.

Substance	solubility in distilled water (appearance of the solution)
aminoethanol-diclofenac-introduced sodium hyaluronate [Example 2]	homogeneously dissolved in distilled water and yielded clear and viscous aqueous solutions
aminoethanol-diclofenac-introduced sodium hyaluronate [Example 3]	homogeneously dissolved in distilled water and yielded clear and viscous aqueous solutions
aminoethanol-diclofenac-introduced sodium hyaluronate [Reference Example 1]	not dissolved in distilled water but yielded a white suspension
aminoethanol-diclofenac-introduced sodium hyaluronate [Reference Example 2]	homogeneously dissolved in distilled water and yielded clear and viscous aqueous solutions

Experiment: Test Example 2: passage of 1.0% (w/v) aqueous solution through 0.22 μm porous filter
Format: physicochemical
Details: Millex-GV 0.22 μm pore diameter, room temperature, absorbance before and after filter passage
Experimental: Each of the aqueous solutions (test solutions) was injected into a rear portion of a syringe (1 mL in volume: manufactured by TERUMO Corporation) equipped with a porous filter (Millex-GV of 0.22 μm pore diameter: manufactured by Millipore Corporation) and was pressed out with a piston at room temperature to pass through the porous filter.
The diclofenac-based absorbance (peak top) at about 280 nm was measured for each of the test solutions before, and after the filter passage of at least 0.5 mL. The filter passage coefficient of each test solution was expressed by a concentration of the diclofenac content in the test solution before and after the filter passage that was calculated from the change in measured absorbance.

Substance	filter passage coefficient
aminoethanol-diclofenac-introduced sodium hyaluronate [Example 1]	95.3%
aminoethanol-diclofenac-introduced sodium hyaluronate [Reference Example 3]	96.9%
aminoethanol-diclofenac-introduced sodium hyaluronate [Reference Example 4]	11.0%
